Data from US10023882B1, “Hetero-oligomers of (S)-carbonyl reductases and their applications in catalyzing reduction of polyphenyl ketones” (Jiangnan University, priority 2017, dated 2018).
“Also recorded” adds a separate entry of the source.

T1: His-SCR2, (S)-carbonyl reductase SCR2 of Candida parapsilosis with N-terminal His-tag, expressed from pET28-His-SCR2
T1 chain: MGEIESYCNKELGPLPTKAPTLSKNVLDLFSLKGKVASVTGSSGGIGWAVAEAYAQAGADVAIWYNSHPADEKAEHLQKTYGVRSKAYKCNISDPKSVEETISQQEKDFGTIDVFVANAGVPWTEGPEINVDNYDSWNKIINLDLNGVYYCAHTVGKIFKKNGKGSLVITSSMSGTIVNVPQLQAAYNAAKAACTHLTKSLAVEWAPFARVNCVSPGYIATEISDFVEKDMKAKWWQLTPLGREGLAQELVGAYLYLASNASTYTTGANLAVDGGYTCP

T2: SCR3, (S)-carbonyl reductase of Candida parapsilosis, as in the hetero-oligomer SCR/SCR3
T2 chain: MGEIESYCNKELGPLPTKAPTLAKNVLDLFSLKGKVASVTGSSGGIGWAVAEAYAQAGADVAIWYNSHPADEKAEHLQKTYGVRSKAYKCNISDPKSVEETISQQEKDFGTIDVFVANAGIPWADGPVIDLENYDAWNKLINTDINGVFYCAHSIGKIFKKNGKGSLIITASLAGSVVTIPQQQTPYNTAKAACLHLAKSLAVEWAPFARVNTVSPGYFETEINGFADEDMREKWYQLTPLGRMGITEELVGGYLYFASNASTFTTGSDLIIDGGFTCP

T3: SCR3, (S)-carbonyl reductase of Candida parapsilosis, as in the hetero-oligomer SCR/SCR3 (Candida parapsilosis, UniProt G8BHG5 1-279)
T3 sequence: T2 chain

T4: His-SCR3, (S)-carbonyl reductase SCR3 of Candida parapsilosis with N-terminal His-tag, expressed from pET28-His-SCR3
T4 chain: T2 chain

B1: Strep-SCR, (S)-carbonyl reductase SCR of Candida parapsilosis with N-terminal Strep-tag, expressed from pET21-Strep-SCR (protein)
chain: MGEIESYCNKELGPLPTKAPTLSKNVLDLFSLKGKVASVTGSSGGIGWAVAEAYAQAGADVAIWYNSHPADEKAEHLQKTYGVHSKAYKCNISDPKSVEETISQQEKDFGTIDVFVANAGVTWTQGPEIDVDNYDSWNKIISVDLNGVYYCSHNIGKIFKKNGKGSLIITSSISGKIVNIPQLQAPYNTAKAACTHLAKSLAIEWAPFARVNTISPGYIDTDITDFASKDMKAKWWQLTPLGREGLTQELVGGYLYLASNASTFTTGSDVVIDGGYTCP
B2: SCR: homo-oligomer (S)-carbonyl reductase from Candida parapsilosis, amino acid sequence SEQ ID NO: 1 (protein, listed as Candida parapsilosis)
chain: B1 chain
B3: SCR, (S)-carbonyl reductase of Candida parapsilosis, as in the hetero-oligomer SCR/SCR3 (enzyme)
chain: B1 chain
B4: Strep-SCR2, (S)-carbonyl reductase SCR2 of Candida parapsilosis with N-terminal Strep-tag, expressed from pET21-Strep-SCR2 (protein)
chain: T1 chain
B5: SCR3: homo-oligomer (S)-carbonyl reductase from Candida parapsilosis, amino acid sequence SEQ ID NO: 3 (protein, listed as Candida parapsilosis)
chain: T2 chain

Assays:
[1] = target: T1, His-SCR2, (S)-carbonyl reductase SCR2 …
[2] = Reductive activity assay towards 2,4-dichlorobenzophenone (NADPH oxidation, absorbance at 340 nm); assay type: biochemical; settings: purified enzyme, 0.5 mM NADPH, 1 mM substrate, 30° C.
Procedure: (§1) (1) Principle and definition: The enzyme activity for the reduction of prochiral ketones to chiral alcohols by homo-oligomers was determined with purified enzymes by measuring the decrease in absorbance at 340 nm resulting from the oxidation of NADPH. Protein concentration was determined by Beyotime (Shanghai, China) using bovine serum albumin as a standard.
(§2) (2) Enzyme activity assay conditions (250 ul): 0.5 mmol·L^−1 NADPH, 1 mmol·L^−1 substrate (2,4-dichlorobenzophenone, 2-naphthyl ketone, or [(E)-2-[3-[3-[2-(7-chloro-2-quinolinyl)ethenyl]phenyl]-3-oxopropyl]benzoic acid methyl ester (Keto Easter M).). Incubate the mixture at 30° C. for 2 min, then add appropriate amount of enzyme, and finally measure the absorbance at 340 nm wavelength.
(§3) Formula for calculating enzyme activity is: Enzyme activity (U)=EW×V×10^3/(6220×0.15), and formula for calculating relative enzyme activity is: relative enzyme activity (U/mg)=enzyme activity (U)/protein content (mg), wherein EW is the measured change of absorbance at 340 nm in 1 min; V is the reaction volume (mL); the molar absorption coefficient (L mol^−1 cm^−1) is 6220; and the optical length is 0.15 cm.
(§4) One unit of the enzyme activity is defined as the amount of enzyme catalyzing the formation and oxidation of 1 μmol of NAD(P)H per minute under measurement conditions.
(§5) Enzyme activity assay system (250 ul) contained 0.5 mM NADPH, 1 mM substrate (i.e. 2,4-dichlorobenzophenone) and appropriate amount of enzyme. The reaction mixture was incubated at 30° C. for 2 min, the appropriate amount of enzyme was added, and finally the absorption change was scanned at 340 nm wavelength. The calculated relative enzyme activity of SCR/SCR2 and SCR2/SCR3 were 4.55 U/mg and 4.42 U/mg towards 2,4-dichlorobenzophenone, respectively.

[3] = Reductive activity assay towards 2-acetonaphthone (NADPH oxidation, absorbance at 340 nm); assay type: biochemical; settings: purified enzyme, 0.5 mM NADPH, 1 mM substrate, 30° C.
Procedure: as §1, §2, §3, §4
as §5, with “2-acetonaphthone)” for “2,4-dichlorobenzophenone)”, “was 2.43” for “and SCR2/SCR3 were 4.55 U/mg and 4.42”, “2-acetonaphthone.” for “2,4-dichlorobenzophenone, respectively.”

[4] = Reductive activity assay towards Keto Easter M (NADPH oxidation, absorbance at 340 nm); assay type: biochemical; settings: purified enzyme, 0.5 mM NADPH, 1 mM substrate, 30° C.
Procedure: as §1, §2, §3, §4
as §5, with “[(E)-2-[3-[3-[2-(7-chloro-2-quinolinyl)ethenyl]phenyl]-3-oxopropyl]benzoic acid methyl ester (Keto Easter M)” for “2,4-dichlorobenzophenone)”, “0.86” for “4.55”, “1.21” for “4.42”, “[(E)-2-[3-[3-[2-(7-chloro-2-quinolinyl)ethenyl]phenyl]-3-oxopropyl]benzoic acid methyl ester (Keto Easter M),” for “2,4-dichlorobenzophenone,”

[5] = target: T2, SCR3, (S)-carbonyl reductase of Candida …
[6] = target: T3, SCR3, (S)-carbonyl reductase of Candida …; assay: method not described for this pair
[7] = target: T4, His-SCR3, (S)-carbonyl reductase SCR3 …

Row | Molecule | relative enzyme activity (specific activity) towards 2,4-dichlorobenzophenone [2] | relative enzyme activity (specific activity) towards 2-acetonaphthone [3] | relative enzyme activity (specific activity) towards Keto Easter M [4] | other results
1 | B1 | – | – | – | relative enzyme activity towards 2,4-dichlorobenzophenone [1]: 4.55 U/mg; relative enzyme activity towards 2-acetonaphthone [1]: 2.43 U/mg; relative enzyme activity towards [(E)-2-[3-[3-[2-(7-chloro-2-quinolinyl)ethenyl]phenyl]-3-oxopropyl]benzoic acid methyl ester (Keto Easter M) [1]: 0.86 U/mg
2 | B2 | no specific activity is observed; also recorded: no enzyme activities were detected | no specific activity is observed; also recorded: no enzyme activities were detected | no specific activity is observed; also recorded: no enzyme activities were detected | –
3 | B3 | – | – | – | activities to polyphenyl ketones [5]: also showed some activities to polyphenyl ketones; binding result [6]: binds
4 | B4 | no specific activity is observed; also recorded: no enzyme activities were detected | no specific activity is observed; also recorded: no enzyme activities were detected | no specific activity is observed; also recorded: no enzyme activities were detected | relative enzyme activity towards 2,4-dichlorobenzophenone [7]: 4.42 U/mg; relative enzyme activity towards [(E)-2-[3-[3-[2-(7-chloro-2-quinolinyl)ethenyl]phenyl]-3-oxopropyl]benzoic acid methyl ester (Keto Easter M) [7]: 1.21 U/mg
5 | B5 | no specific activity is observed; also recorded: no enzyme activities were detected | no specific activity is observed; also recorded: no enzyme activities were detected | no specific activity is observed; also recorded: no enzyme activities were detected | –
